How the values were obtained:
[1] = target: mature human IL-18 K89A mutant (human) (UniProt Q14116); test: cell-based or functional assay
[2] = target: mature human IL-18 WT, generated by factor Xa cleavage of proIL-18 (ICE/Xa) (human) (UniProt Q14116); test: cell-based or functional assay
Chain of mature human IL-18 WT, generated by factor Xa cleavage of proIL-18 (ICE/Xa) (human) (Q14116 37-193 limits assumed): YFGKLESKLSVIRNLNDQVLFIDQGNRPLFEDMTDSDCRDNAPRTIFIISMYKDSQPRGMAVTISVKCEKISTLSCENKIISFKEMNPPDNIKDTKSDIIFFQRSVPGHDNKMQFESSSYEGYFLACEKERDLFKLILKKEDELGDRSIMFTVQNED

Chain of mature human IL-18 K89A mutant (human) (Q14116 37-193 K89A): as the sequence (Q14116 37-193 limits assumed) above, with K53A counted along it

IL-18BP concentration giving a statistically significant reduction of IFN-γ co-induction in NKO cells [1]: 120 ng/mL
IL-18BP concentration that neutralized IFN-γ induction in PBMCs [1]: 120 ng/mL
50% inhibitory concentration of IL-18BP for co-induction of IFN-γ from NKO cells [2]: 15 ng/mL
amount of IL-18BP needed to neutralize IFN-γ induction in PBMCs [2]: 3.7 ng/mL
Substance: "a" isoform of CHO cell produced recombinant his-6-tagged human IL-18BP (from UniProt O95998 31-194)

Source: patent publication US20020169291A1
